Measured values reported in publication PMC2686265, “ATP and MO25α Regulate the Conformational State of the STRADα Pseudokinase and Activation of the LKB1 Tumour Suppressor” (PLoS Biology, 2009).
Positions count from the first letter of the chain named. Like-named read-outs stand apart in the source and are kept apart here.

Tests used:
Test in all cases: SPR BIAcore binding of STRADα to immobilised MO25α
[1] = target: T1, MO25α (WT) (Homo sapiens, UniProt Q7RTN6+Q9Y376)
T1 construct: wild-type and mutant forms of STRADα (residues 54–431) and MO25α (residues 1–341) were expressed individually as GST fusion proteins in E. coli; GST (cleaved yes); made in house; host or cells: E. coli (STRADα: BL21(DE3)pLysS, co-expressed with MO25α and then separated from it)
T1 sequence (Q9Y376 1-341): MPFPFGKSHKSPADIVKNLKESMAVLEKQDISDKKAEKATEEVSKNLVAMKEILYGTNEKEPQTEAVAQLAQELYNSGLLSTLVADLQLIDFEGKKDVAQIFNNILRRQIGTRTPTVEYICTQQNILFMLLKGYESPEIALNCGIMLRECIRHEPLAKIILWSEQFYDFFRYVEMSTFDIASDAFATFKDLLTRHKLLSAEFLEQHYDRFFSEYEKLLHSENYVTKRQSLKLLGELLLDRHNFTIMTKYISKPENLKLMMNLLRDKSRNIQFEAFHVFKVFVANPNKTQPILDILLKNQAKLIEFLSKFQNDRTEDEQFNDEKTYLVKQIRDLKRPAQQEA
T1 sequence (Q7RTN6 59-431): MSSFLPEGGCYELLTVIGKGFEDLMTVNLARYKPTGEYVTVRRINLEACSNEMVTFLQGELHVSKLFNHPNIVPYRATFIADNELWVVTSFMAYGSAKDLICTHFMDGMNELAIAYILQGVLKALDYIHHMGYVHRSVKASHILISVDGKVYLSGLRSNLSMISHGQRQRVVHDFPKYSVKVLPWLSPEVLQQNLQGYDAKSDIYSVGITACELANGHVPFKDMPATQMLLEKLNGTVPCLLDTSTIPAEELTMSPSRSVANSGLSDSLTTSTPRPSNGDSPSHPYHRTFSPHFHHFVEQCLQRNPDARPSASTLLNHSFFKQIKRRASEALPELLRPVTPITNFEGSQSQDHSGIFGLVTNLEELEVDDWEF
Experimental: (§1) SPR measurements were performed using a BIAcore T100 instrument. Wild-type and mutant forms of MO25α were immobilized on a CM5 sensor chip using standard amine-coupling chemistry, and 10 mM HBS (pH 7.4) was used as the running buffer. The carboxymethyl dextran surface was activated with a 7-min injection of a 1∶1 ratio of 0.4 M 1-ethyl-3-(3-dimethylaminopropyl) carbodiimide hydrochloride (EDC)/0.1 M N-hydroxy succinimide (NHS). MO25α (5–7 µM) was coupled to the surface with a 1-min injection of protein diluted in 10 mM sodium acetate (pH 5.5). Remaining activated groups were blocked with a 7-min injection of 1 M ethanolamine (pH 8.5). MO25α was immobilised on three flow cells of a CM5 chip at densities 1,700–2,500 RU performed at 25°C, leaving one flow cell as a reference to subtract any possible nonspecific binding.
(§2) STRADα was prepared in running buffer containing 50 mM Tris (pH 7.8), 50 mM NaCl, 270 mM sucrose, 1 mM DTT, 0.005% P20, and 0.1 mg/ml BSA in the presence/absence of 100 µM ATP and 1 mM MgCl2, and injected over all four surfaces at nine concentrations of a 3-fold concentration series (5 µM to […]). Each concentration was injected in duplicate over all surfaces. Association was measured for 60 s at a flow rate of 50 µl/min, and dissociation was measured for 3 min. STRADα dissociated completely from the MO25α surfaces, thus eliminating the need for a regeneration step.
(§3) Data were analysed using Scrubber 2 (BioLogic Software) and CLAMP software. Data were double referenced to the reference surface to subtract any possible nonspecific binding and to the blank buffer injections to subtract drift of the target from surface. Data were fitted to a 1∶1 or 2∶1 binding site model where appropriate. Kinetic association (k a) and dissociation rate (k d) constants were separately determined from the BIAcore sensorgrams, and equilibrium dissociation constants (K d) were calculated as: K d1 = k d1/k a1 and K d2 = k d2/k a2. Equilibrium constants were also independently calculated from a saturation binding curve, by fitting the measured response (R) from specific binding to the following equation: R = (R max1[STRAD]/([STRAD]+K d1))+(R max2[STRAD]/([STRAD]+K d2)), where R max1 and R max2 are the relative maximal changes in response for sites 1 and 2, respectively, and K d1 and K d2 are the equilibrium dissociation constants for sites 1 and 2, respectively. Dose-response curves for calculating the Hill slope (H) of the data were fitted with the following equation: R = minimum+(maximum−minimum)/(1+10^((logEC50−[STRAD])×H)) using GraphPad-PRISM software.

[2] = target: T2, MO25α (R227A) (Homo sapiens, UniProt Q7RTN6+Q9Y376, R227A)
T2 construct: wild-type and mutant forms of STRADα (residues 54–431) and MO25α (residues 1–341) were expressed individually as GST fusion proteins in E. coli; GST (cleaved yes); made in house; host or cells: E. coli
T2 sequence (Q9Y376 1-341 R227A): T1 sequence (Q9Y376 1-341) with R227A
T2 sequence (Q7RTN6 59-431): T1 sequence (Q7RTN6 59-431)
Experimental: as §1, §2, §3

[3] = target: T3, MO25α (M260A) (Homo sapiens, UniProt Q7RTN6+Q9Y376, M260A)
T3 construct: wild-type and mutant forms of STRADα (residues 54–431) and MO25α (residues 1–341) were expressed individually as GST fusion proteins in E. coli; GST (cleaved yes); made in house; host or cells: E. coli
T3 sequence (Q9Y376 1-341 M260A): T1 sequence (Q9Y376 1-341) with M260A
T3 sequence (Q7RTN6 59-431): T1 sequence (Q7RTN6 59-431)
Experimental: as §1, §2, §3

[4] = target: T4, MO25α (R227A/M260A) (Homo sapiens, UniProt Q9Y376, M260A/R227A); settings: even in the presence of ATP
T4 construct: wild-type and mutant forms of STRADα (residues 54–431) and MO25α (residues 1–341) were expressed individually as GST fusion proteins in E. coli; GST (cleaved yes); made in house; host or cells: E. coli
Experimental: as §1, §2, §3

T4 sequence (Q9Y376 whole entry R227A/M260A, one chain of several, the tested form may be a part): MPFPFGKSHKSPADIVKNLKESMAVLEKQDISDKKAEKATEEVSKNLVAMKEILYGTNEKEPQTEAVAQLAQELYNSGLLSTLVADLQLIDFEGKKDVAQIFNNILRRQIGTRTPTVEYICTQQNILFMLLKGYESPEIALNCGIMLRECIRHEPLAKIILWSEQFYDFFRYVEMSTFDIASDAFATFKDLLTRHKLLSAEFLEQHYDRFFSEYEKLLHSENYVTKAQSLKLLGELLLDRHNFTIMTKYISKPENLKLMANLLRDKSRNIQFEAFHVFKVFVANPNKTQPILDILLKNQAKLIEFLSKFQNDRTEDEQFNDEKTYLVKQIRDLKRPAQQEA

Kd ([1]; + 0.1 mM ATP, Kd = kd/ka, read-out: Kd1): 2500 nM
kd1 ([1]; + ATP + Mg2+): 0.43 (1.4 × 10−3) s−1
kd2 ([1]; + ATP + Mg2+): 0.04 (8.8 × 10−5) s−1
Hill slope ([1]; in the presence of ATP, two-site binding): 0.4
Kd ([1]; in the presence of ATP, read-out: second binding constant (Kd2)): 12 nM
kd1 ([1]; no ATP): 0.63 (3.0 × 10−3) s−1
Kd ([1]; no ATP, Kd = kd/ka, read-out: Kd1): 3800 nM
kd1 ([2]; + ATP + Mg2+): 0.72 (2.0 × 10−3) s−1
binding of STRADα observed by SPR ([2]; in the absence of ATP): virtually abolished binding
kd1 ([3]; + ATP + Mg2+): 0.43 (1.7 × 10−3) s−1
kd2 ([3]; + ATP + Mg2+): 0.05 (2.3 × 10−4) s−1
kd1 ([3]; no ATP): 0.92 (3.0 × 10−3) s−1
interaction with STRADα [4]: failed to interact
B1: STRADα: STRADα pseudokinase (residues 59–431), His tag removed, analyte injected over immobilised MO25α in SPR (protein)
chain: T1 sequence (Q7RTN6 59-431)
modifications: left off: His6 with TEV site (…), N-terminal, cleaved
notes: STRADα pseudokinase (residues 59–431), His tag removed, analyte injected over immobilised MO25α in SPR
